From the supplement of paper PMC9112550, “Optimization of the antimicrobial peptide Bac7 by deep mutational scanning” (BMC Biology, 2022)

System: Escherichia coli TOP10
Assay: shrunken log2 fold change of peptide-encoding DNA abundance (4.5 h post-induction vs induction); higher = less antimicrobial activity (less host growth inhibition)
Conditions: time post-induction: 4.5 h; library: site-saturation at positions 5, 18, 19, 20
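Also: peptides expressed intracellularly from a pBAD plasmid library in pooled LB shake-flask culture, induced with 0.3% L-arabinose, DNA abundance read by NGS, three biological replicates, DESeq2 with apeglm shrinkage.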

RRIRWRPPRLPRPRPRPTLRPRP
shrunken log2 fold change: 0.0881

RRIRWRPPRLPRPRPRPTMAPRP
shrunken log2 fold change: 0.449

RRIRWRPPRLPRPRPRPTMKPRP
shrunken log2 fold change: -0.0612

RRIRWRPPRLPRPRPRPTMPPRP
shrunken log2 fold change: 0.256

RRIRWRPPRLPRPRPRPTMTPRP
shrunken log2 fold change: 0.328

RRIRWRPPRLPRPRPRPTNRPRP
shrunken log2 fold change: -0.018

RRIRWRPPRLPRPRPRPTPDPRP
shrunken log2 fold change: 0.746

RRIRWRPPRLPRPRPRPTPIPRP
shrunken log2 fold change: 0.419

RRIRWRPPRLPRPRPRPTPSPRP
shrunken log2 fold change: 0.564

RRIRWRPPRLPRPRPRPTQAPRP
shrunken log2 fold change: 1.45

RRIRWRPPRLPRPRPRPTQIPRP
shrunken log2 fold change: 0.132

RRIRWRPPRLPRPRPRPTQTPRP
shrunken log2 fold change: 0.551

RRIRWRPPRLPRPRPRPTQYPRP
shrunken log2 fold change: 0.0537

RRIRWRPPRLPRPRPRPTRCPRP
shrunken log2 fold change: 0.0338

RRIRWRPPRLPRPRPRPTRMPRP
shrunken log2 fold change: 0.381

RRIRWRPPRLPRPRPRPTSAPRP
shrunken log2 fold change: 0.389

RRIRWRPPRLPRPRPRPTVAPRP
shrunken log2 fold change: 0.662

RRIRWRPPRLPRPRPRPTVCPRP
shrunken log2 fold change: 0.00145

RRIRWRPPRLPRPRPRPTVEPRP
shrunken log2 fold change: 0.0565

RRIRWRPPRLPRPRPRPTVGPRP
shrunken log2 fold change: 0.468

RRIRWRPPRLPRPRPRPTYMPRP
shrunken log2 fold change: -0.0572

RRIRWRPPRLPRPRPRPTYNPRP
shrunken log2 fold change: 0.4

RRIRWRPPRLPRPRPRPVAPPRP
shrunken log2 fold change: 0.522

RRIRWRPPRLPRPRPRPVAWPRP
shrunken log2 fold change: 0.489

RRIRWRPPRLPRPRPRPVCIPRP
shrunken log2 fold change: 0.12

RRIRWRPPRLPRPRPRPVCWPRP
shrunken log2 fold change: 0.758

RRIRWRPPRLPRPRPRPVCYPRP
shrunken log2 fold change: 0.028

RRIRWRPPRLPRPRPRPVDCPRP
shrunken log2 fold change: 0.00927

RRIRWRPPRLPRPRPRPVENPRP
shrunken log2 fold change: -0.101

RRIRWRPPRLPRPRPRPVFGPRP
shrunken log2 fold change: 0.159

RRIRWRPPRLPRPRPRPVHLPRP
shrunken log2 fold change: -0.00868

RRIRWRPPRLPRPRPRPVHMPRP
shrunken log2 fold change: -0.0785

RRIRWRPPRLPRPRPRPVICPRP
shrunken log2 fold change: -0.151

RRIRWRPPRLPRPRPRPVIVPRP
shrunken log2 fold change: -0.0785

RRIRWRPPRLPRPRPRPVLLPRP
shrunken log2 fold change: 0.0146

RRIRWRPPRLPRPRPRPVNFPRP
shrunken log2 fold change: 0.0606

RRIRWRPPRLPRPRPRPVPGPRP
shrunken log2 fold change: 0.491

RRIRWRPPRLPRPRPRPVPIPRP
shrunken log2 fold change: -0.0691

RRIRWRPPRLPRPRPRPVPLPRP
shrunken log2 fold change: 0.00691

RRIRWRPPRLPRPRPRPVPQPRP
shrunken log2 fold change: 0.282

RRIRWRPPRLPRPRPRPVPTPRP
shrunken log2 fold change: 0.544

RRIRWRPPRLPRPRPRPVPWPRP
shrunken log2 fold change: 0.374

RRIRWRPPRLPRPRPRPVQAPRP
shrunken log2 fold change: 0.36

RRIRWRPPRLPRPRPRPVQHPRP
shrunken log2 fold change: 0.136

RRIRWRPPRLPRPRPRPVQVPRP
shrunken log2 fold change: 0.0298

RRIRWRPPRLPRPRPRPVQWPRP
shrunken log2 fold change: 0.251

RRIRWRPPRLPRPRPRPVREPRP
shrunken log2 fold change: 0.0727

RRIRWRPPRLPRPRPRPWCAPRP
shrunken log2 fold change: 0.0379

RRIRWRPPRLPRPRPRPWCGPRP
shrunken log2 fold change: 0.273

RRIRWRPPRLPRPRPRPWCHPRP
shrunken log2 fold change: -0.422

RRIRWRPPRLPRPRPRPWDFPRP
shrunken log2 fold change: -0.2

RRIRWRPPRLPRPRPRPWEDPRP
shrunken log2 fold change: -0.0135

RRIRWRPPRLPRPRPRPWFFPRP
shrunken log2 fold change: -0.0638

RRIRWRPPRLPRPRPRPWGIPRP
shrunken log2 fold change: 0.0114

RRIRWRPPRLPRPRPRPWHIPRP
shrunken log2 fold change: 0.106

RRIRWRPPRLPRPRPRPWHKPRP
shrunken log2 fold change: -0.0356

RRIRWRPPRLPRPRPRPWHVPRP
shrunken log2 fold change: -0.201

RRIRWRPPRLPRPRPRPWLRPRP
shrunken log2 fold change: 0.0741

RRIRWRPPRLPRPRPRPWLTPRP
shrunken log2 fold change: -0.0976

RRIRWRPPRLPRPRPRPWPAPRP
shrunken log2 fold change: 0.62

RRIRWRPPRLPRPRPRPWPQPRP
shrunken log2 fold change: 0.273

RRIRWRPPRLPRPRPRPWPVPRP
shrunken log2 fold change: 0.502

RRIRWRPPRLPRPRPRPWRAPRP
shrunken log2 fold change: 0.223

RRIRWRPPRLPRPRPRPWRDPRP
shrunken log2 fold change: 0.433

RRIRWRPPRLPRPRPRPWRFPRP
shrunken log2 fold change: 0.0309

RRIRWRPPRLPRPRPRPWRIPRP
shrunken log2 fold change: -0.604

RRIRWRPPRLPRPRPRPWRQPRP
shrunken log2 fold change: 0.25

RRIRWRPPRLPRPRPRPWSHPRP
shrunken log2 fold change: -0.00467

RRIRWRPPRLPRPRPRPWTWPRP
shrunken log2 fold change: 0.0111

RRIRWRPPRLPRPRPRPWVAPRP
shrunken log2 fold change: 0.191

RRIRWRPPRLPRPRPRPWVVPRP
shrunken log2 fold change: 1.61

RRIRWRPPRLPRPRPRPWWNPRP
shrunken log2 fold change: -0.0562

RRIRWRPPRLPRPRPRPWWRPRP
shrunken log2 fold change: 0.0782

RRIRWRPPRLPRPRPRPWYKPRP
shrunken log2 fold change: -0.1

RRIRWRPPRLPRPRPRPYARPRP
shrunken log2 fold change: 0.101

RRIRWRPPRLPRPRPRPYAWPRP
shrunken log2 fold change: 0.122

RRIRWRPPRLPRPRPRPYCAPRP
shrunken log2 fold change: -0.281

RRIRWRPPRLPRPRPRPYCNPRP
shrunken log2 fold change: -0.455

RRIRWRPPRLPRPRPRPYERPRP
shrunken log2 fold change: -0.0653

RRIRWRPPRLPRPRPRPYHCPRP
shrunken log2 fold change: -0.276

RRIRWRPPRLPRPRPRPYICPRP
shrunken log2 fold change: -0.329

RRIRWRPPRLPRPRPRPYIQPRP
shrunken log2 fold change: -1.07

RRIRWRPPRLPRPRPRPYLAPRP
shrunken log2 fold change: -0.211

RRIRWRPPRLPRPRPRPYLWPRP
shrunken log2 fold change: -0.153

RRIRWRPPRLPRPRPRPYPCPRP
shrunken log2 fold change: -0.105

RRIRWRPPRLPRPRPRPYQTPRP
shrunken log2 fold change: -0.223

RRIRWRPPRLPRPRPRPYRKPRP
shrunken log2 fold change: 0.0527

RRIRWRPPRLPRPRPRPYRLPRP
shrunken log2 fold change: 0.00724

RRIRWRPPRLPRPRPRPYRVPRP
shrunken log2 fold change: 0.00439

RRIRWRPPRLPRPRPRPYSCPRP
shrunken log2 fold change: -0.705

RRIRWRPPRLPRPRPRPYTRPRP
shrunken log2 fold change: -0.774

RRIRWRPPRLPRPRPRPYVEPRP
shrunken log2 fold change: -0.446

RRIRWRPPRLPRPRPRPYWEPRP
shrunken log2 fold change: -0.0146

RRIRWRPPRLPRPRPRPYWQPRP
shrunken log2 fold change: -0.0738

RRIRWRPPRLPRPRPRPYYNPRP
shrunken log2 fold change: -1.01

RRIRWRPPRLPRPRPRPYYQPRP
shrunken log2 fold change: -0.297

RRIRWRPPRLPRPRPRPYYSPRP
shrunken log2 fold change: -0.181

RRIRYRPPRLPRPRPRPAAIPRP
shrunken log2 fold change: -0.092

RRIRYRPPRLPRPRPRPADAPRP
shrunken log2 fold change: 0.0896

RRIRYRPPRLPRPRPRPADFPRP
shrunken log2 fold change: -0.0123

RRIRYRPPRLPRPRPRPADLPRP
shrunken log2 fold change: -0.00419

RRIRYRPPRLPRPRPRPAERPRP
shrunken log2 fold change: 0.0541

RRIRYRPPRLPRPRPRPAICPRP
shrunken log2 fold change: 0.0426

RRIRYRPPRLPRPRPRPALAPRP
shrunken log2 fold change: 0.194

RRIRYRPPRLPRPRPRPALHPRP
shrunken log2 fold change: 0.12

RRIRYRPPRLPRPRPRPALRPRP
shrunken log2 fold change: -0.0531

RRIRYRPPRLPRPRPRPALSPRP
shrunken log2 fold change: -0.0367

RRIRYRPPRLPRPRPRPAMNPRP
shrunken log2 fold change: -0.796

RRIRYRPPRLPRPRPRPANGPRP
shrunken log2 fold change: -0.6

RRIRYRPPRLPRPRPRPANYPRP
shrunken log2 fold change: -0.0328

RRIRYRPPRLPRPRPRPAPHPRP
shrunken log2 fold change: -0.247

RRIRYRPPRLPRPRPRPAPYPRP
shrunken log2 fold change: -0.557

RRIRYRPPRLPRPRPRPAREPRP
shrunken log2 fold change: 0.00627

RRIRYRPPRLPRPRPRPATEPRP
shrunken log2 fold change: 0.0247

RRIRYRPPRLPRPRPRPAVAPRP
shrunken log2 fold change: 0.159

RRIRYRPPRLPRPRPRPAVFPRP
shrunken log2 fold change: -0.0965

RRIRYRPPRLPRPRPRPAVYPRP
shrunken log2 fold change: -0.0166

RRIRYRPPRLPRPRPRPAWSPRP
shrunken log2 fold change: -0.292

RRIRYRPPRLPRPRPRPAYAPRP
shrunken log2 fold change: -0.236

RRIRYRPPRLPRPRPRPCAFPRP
shrunken log2 fold change: -0.353

RRIRYRPPRLPRPRPRPCENPRP
shrunken log2 fold change: -0.215

RRIRYRPPRLPRPRPRPCGDPRP
shrunken log2 fold change: -0.0424

RRIRYRPPRLPRPRPRPCGIPRP
shrunken log2 fold change: -0.00192

RRIRYRPPRLPRPRPRPCGVPRP
shrunken log2 fold change: 2.83

RRIRYRPPRLPRPRPRPCIDPRP
shrunken log2 fold change: -0.00448

RRIRYRPPRLPRPRPRPCKFPRP
shrunken log2 fold change: -0.931

RRIRYRPPRLPRPRPRPCLFPRP
shrunken log2 fold change: -0.931

RRIRYRPPRLPRPRPRPCLPPRP
shrunken log2 fold change: -0.409

RRIRYRPPRLPRPRPRPCNPPRP
shrunken log2 fold change: -0.217

RRIRYRPPRLPRPRPRPCPCPRP
shrunken log2 fold change: 0.0185

RRIRYRPPRLPRPRPRPCRTPRP
shrunken log2 fold change: -0.651

RRIRYRPPRLPRPRPRPCSVPRP
shrunken log2 fold change: -1.08

RRIRYRPPRLPRPRPRPCTEPRP
shrunken log2 fold change: -0.531

RRIRYRPPRLPRPRPRPCWRPRP
shrunken log2 fold change: -0.138

RRIRYRPPRLPRPRPRPCWYPRP
shrunken log2 fold change: -1.03

RRIRYRPPRLPRPRPRPCYNPRP
shrunken log2 fold change: -0.857

RRIRYRPPRLPRPRPRPDADPRP
shrunken log2 fold change: 0.00911

RRIRYRPPRLPRPRPRPDASPRP
shrunken log2 fold change: -0.00663

RRIRYRPPRLPRPRPRPDCAPRP
shrunken log2 fold change: -0.218

RRIRYRPPRLPRPRPRPDCGPRP
shrunken log2 fold change: -0.398

RRIRYRPPRLPRPRPRPDDLPRP
shrunken log2 fold change: -0.0432

RRIRYRPPRLPRPRPRPDFQPRP
shrunken log2 fold change: -0.409

RRIRYRPPRLPRPRPRPDGHPRP
shrunken log2 fold change: -0.024

RRIRYRPPRLPRPRPRPDHGPRP
shrunken log2 fold change: -0.0075

RRIRYRPPRLPRPRPRPDHPPRP
shrunken log2 fold change: 0.0184

RRIRYRPPRLPRPRPRPDIAPRP
shrunken log2 fold change: -0.0285

RRIRYRPPRLPRPRPRPDKFPRP
shrunken log2 fold change: -0.116

RRIRYRPPRLPRPRPRPDLDPRP
shrunken log2 fold change: -0.181

RRIRYRPPRLPRPRPRPDLPPRP
shrunken log2 fold change: -0.0756

RRIRYRPPRLPRPRPRPDNGPRP
shrunken log2 fold change: -0.00114
